# Assay results: patent US20120082681A1 (Novartis, published 2012)
# T1: mouse IL12Rbeta1 (mouse, UniProt Q60837 20-565, limits assumed)
# T1 construct: also called murine IL12Rbeta1; rodent IL12Rbeta1 proteins
# T1 sequence (looked up): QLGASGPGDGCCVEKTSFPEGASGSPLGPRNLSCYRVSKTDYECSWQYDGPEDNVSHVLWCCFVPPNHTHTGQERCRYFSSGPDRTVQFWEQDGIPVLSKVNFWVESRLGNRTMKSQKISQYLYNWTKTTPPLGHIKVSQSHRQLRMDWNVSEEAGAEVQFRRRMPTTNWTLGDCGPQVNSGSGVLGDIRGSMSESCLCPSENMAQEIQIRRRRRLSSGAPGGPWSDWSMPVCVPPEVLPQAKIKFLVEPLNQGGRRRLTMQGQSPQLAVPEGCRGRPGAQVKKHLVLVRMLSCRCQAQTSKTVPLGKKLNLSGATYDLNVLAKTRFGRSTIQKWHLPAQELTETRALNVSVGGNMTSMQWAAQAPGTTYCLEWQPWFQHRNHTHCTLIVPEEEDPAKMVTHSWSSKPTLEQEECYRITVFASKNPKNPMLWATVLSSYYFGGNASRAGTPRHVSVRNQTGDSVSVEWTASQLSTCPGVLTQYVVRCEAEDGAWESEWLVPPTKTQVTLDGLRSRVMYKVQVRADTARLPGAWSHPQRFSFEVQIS
# Legend:
# [1] = target: T2, cynomolgous IL12Rβ1 naturally expressed on cells (HSC-F cells, cyno T-cells, cyno blood cells) (cynomolgus monkey, UniProt P42701 24-662 (human entry)); assay: cell-based or functional assay
# [2] = target: T3, human IL12Rβ1 naturally expressed on cells (Kit225 cells, human T-cells, human blood cells) (human, UniProt P42701 24-662); assay: cell-based or functional assay
# [3] = target: T4, cynomolgous monkey IL12Rβ1 (recombinant, construct not stated) (cynomolgus monkey, UniProt P42701 24-545 (human entry), limits assumed); assay: SPR (Biacore), cyno IL12Rβ1
# T4 construct: The SPR method describes capture of an IL12Rβ1-Fc fusion, but the cyno construct is not described; the whole entry is named; also called cyno IL12Rβ1; cynomolgus IL12Rbeta1
# [4] = target: T2, cynomolgous IL12Rβ1 naturally expressed …; assay: flow cytometry, cell binding on HSC-F (cyno natural expression)
# Method: (§1) Cell binding of selected antibodies is tested using various IL-12Rβ1 expressing cell lines, e.g. Kit 225 or HSC—F, or human and cyno T cell blasts, employing flow cytometry. After incubation with serial antibody dilutions, staining of the cells is quantified by flow cytometric analysis.
# [5] = target: T5, human IL12Rbeta1 polypeptide (soluble receptor/antigen, construct not stated) (human, UniProt P42701 24-545); assay: in vitro competitive binding assay (Bioveris/MSD); inhibition of receptor binding to coated IL23
# T5 construct: the whole entry is named; also called IL12Rβ1; the receptor
# Method: (§2) During the assay procedure, a fixed amount (predetermined to result in near maximum signal) of the receptor was incubated with increasing concentrations (1:100 to 100:1 molar ratio) of purified Fab/IgG in solution. Subsequently, the samples were transferred to a ligand coated and blocked MSD multi-titer plate. The free receptor binds to the ligand and was detected via an appropriate ruthenium complex-labeled antibody and quantified. The concentration of bound receptor as an inverse function of Fab/IgG concentration used for incubation was fitted using the respective model. The inflection point of the fitted curve represents the IC₅₀ value.
# [6] = target: T3, human IL12Rβ1 naturally expressed on …; assay: flow cytometry, cell binding on human T-cells (human natural expression)
# Method: as §1
# [7] = target: T2, cynomolgous IL12Rβ1 naturally expressed …; assay: flow cytometry, cell binding on cyno T-cells (cyno natural expression)
# Method: as §1
# human IL12Rβ1-Fc-Fusion = target: T6, human IL12Rβ1-Fc-Fusion (human, UniProt P42701 24-545); assay: SPR (Biacore), IL12Rβ1-Fc fusion captured on anti-human-Fc CM5 chip
# T6 construct: Captured on an anti-human-Fc chip for SPR; not shown: Fc part of the fusion
# Source text: For determination of KD values, surface plasmon resonance technology was applied using the Biacore™ technology. Anti-human-Fc-capture CM5 chip (Biacore, Sweden) was used for capturing IL12Rβ1-Fc-Fusion followed by ligand (Fab) injection at different concentrations.
# [8] = target: T5, human IL12Rbeta1 polypeptide (soluble …); assay: in vitro competitive binding assay (Bioveris/MSD); inhibition of receptor binding to coated IL12
# Method: as §2
# [9] = target: T3, human IL12Rβ1 naturally expressed on …; assay: flow cytometry, cell binding on Kit225 (human natural expression)
# Method: as §1
# mouse IL12Rbeta1 = target: T1, mouse IL12Rbeta1; assay: not described
# [10] = target: T5, human IL12Rbeta1 polypeptide (soluble …); assay: in vitro competitive binding assay (Bioveris/MSD); inhibition of receptor binding to coated IL23; IL23 competitive binding (second number of 8/18)
# Method: as §2
# [11] = target: T5, human IL12Rbeta1 polypeptide (soluble …); assay: in vitro competitive binding assay (Bioveris/MSD); inhibition of receptor binding to coated IL12; IL12 competitive binding (first number of 8/18)
# Method: as §2
"IL12/IL18 dependent IFNγ production In cyno blood cells (IC50, pM) [1] [pM]","IL12/IL18 dependent IFNγ production In human blood cells (IC50, pM) [2] [pM]",Kd [3] [nM],EC50 [4] [nM],IC50 [5] [nM],EC50 [6] [nM],EC50 [7] [nM],Kd (human IL12Rβ1-Fc-Fusion) [nM],IC50 [8] [pM],EC50 [9] [pM],binding result (mouse IL12Rbeta1),IC50 [10] [nM],IC50 [11] [pM],Binder
284,24,0.6,0.023,0.02,0.015,0.036,0.04,8,10,,,,"mAb7 (MOR11879 with IgG1 LALA Fc variant) (antibody, V domains shown, Human IgG1 L234A L235A (LALA), expressed in HKB11 cells) VH: QVQLVQSGAEVKKPGASVKVSCKASGYTFTGYYMHWVRQAPGQGLEWMGMIGPQHGEAIYAQKFQGRVTMTRDTSISTAYMELSRLRSEDTAVYYCARESTDSDESPFDYWGQGTLVTVSS VL: DIELTQPPSVSVSPGQTASITCSGDNIRSYYVSWYQQKPGQAPVLVIYDDSDRPSGIPERFSGSNSGNTATLTISGTQAEDEADYYCQSYGSHSNFVVFGGGTKLTVLG"
,,,,,,,,,,no binding,,,"MOR11880 (antibody, V domains shown, Named by its variable regions only; H/DxMS used a representative antibody of the group; also called group mAb10, mAb11, mAb12, mAb16 (MOR11880)) VH: QVQLVQSGAEVKKPGASVKVSCKASGYTFTGYYMHWVRQAPGQGLEWMGMIGPQHGEAIYAQKFQGRVTMTRDTSISTAYMELSRLRSDDTAVYYCARESTDSDESPFDYWGQGTLVTVSS VL: SYELTQPLSVSVALGQTARITCSGDNIRSYYVSWYQQKPGQAPVLVIYDDSDRPSGIPERFSGSNSGNTATLTISRAQAGDEADYYCQSYGSHSNFVVFGGGTKLTVLG"
1180,42,0.6,,0.02,0.016,0.028,0.04,8,11,,,,"mAb10 (MOR11880 with IgG1 LALA Fc variant) (antibody, V domains shown, Human IgG1 L234A L235A (LALA), expressed in HKB11 cells) VH: QVQLVQSGAEVKKPGASVKVSCKASGYTFTGYYMHWVRQAPGQGLEWMGMIGPQHGEAIYAQKFQGRVTMTRDTSISTAYMELSRLRSDDTAVYYCARESTDSDESPFDYWGQGTLVTVSS VL: SYELTQPLSVSVALGQTARITCSGDNIRSYYVSWYQQKPGQAPVLVIYDDSDRPSGIPERFSGSNSGNTATLTISRAQAGDEADYYCQSYGSHSNFVVFGGGTKLTVLG"
239,28,0.1,0.023,,0.033,0.055,0.04,,6,,0.018,8,"mAb1 (MOR11873 with IgG1 LALA Fc variant) (antibody, V domains shown, Human IgG1 L234A L235A (LALA), expressed in HKB11 cells) VH: QVQLVESGGGVVQPGRSLRLSCAASGFTFTSYGMSWVRQAPGKGLEWVAGISYSGSDTEYADSVKGRFTISRDNSKNTLYLQMNSLRAEDTAVYYCARSPDYIIDYGFDYWGRGTLVTVSS VL: AIQMTQSPSSLSASVGDRVTITCRASQGISSDLAWYQQKPGKAPKLLIYDASSLQSGVPSRFSGSGSGTDFTLTISSLQPEDFATYYCQQYWIYPFTFGQGTKVEIKR"
,,,,,,,,,,no binding,,,"MOR11873 (antibody, V domains shown, Named by its variable regions only; H/DxMS used a representative antibody of the group; also called group mAb1, mAb2, mAb3, mAb13 (MOR11873)) VH: QVQLVESGGGVVQPGRSLRLSCAASGFTFTSYGMSWVRQAPGKGLEWVAGISYSGSDTEYADSVKGRFTISRDNSKNTLYLQMNSLRAEDTAVYYCARSPDYIIDYGFDYWGRGTLVTVSS VL: AIQMTQSPSSLSASVGDRVTITCRASQGISSDLAWYQQKPGKAPKLLIYDASSLQSGVPSRFSGSGSGTDFTLTISSLQPEDFATYYCQQYWIYPFTFGQGTKVEIKR"
,,,,,,,,,,no binding,,,"MOR11878 (antibody, V domains shown, Named by its variable regions only; H/DxMS used a representative antibody of the group; also called group mAb4, mAb5, mAb6, mAb14 (MOR11878)) VH: QVQLVESGGGVVQPGRSLRLSCAASGFTFTSYGMSWVRQAPGKGLEWVAGISYDASDTEYADSVKGRFTISRDNSKNTLYLQMNSLRAEDTAVYYCARSPDYIIDYGFDYWGRGTLVTVSS VL: AIQMTQSPSSLSASVGDRVTITCRASQGISSDLAWYQQKPGKAPKLLIYDASSLQSGVPSRFSGSGSGTDFTLTISSLQPEDFATYYCQQYWWYPFTFGQGTKVEIKR"
216,77,0.1,0.013,0.013,0.038,0.041,0.02,8,5,,,,"mAb4 (MOR11878 with IgG1 LALA Fc variant) (antibody, V domains shown, Human IgG1 L234A L235A (LALA), expressed in HKB11 cells) VH: QVQLVESGGGVVQPGRSLRLSCAASGFTFTSYGMSWVRQAPGKGLEWVAGISYDASDTEYADSVKGRFTISRDNSKNTLYLQMNSLRAEDTAVYYCARSPDYIIDYGFDYWGRGTLVTVSS VL: AIQMTQSPSSLSASVGDRVTITCRASQGISSDLAWYQQKPGKAPKLLIYDASSLQSGVPSRFSGSGSGTDFTLTISSLQPEDFATYYCQQYWWYPFTFGQGTKVEIKR"
